# Experiments:
# [1] = target: NRF2 DBD of NRF2-sMafGχ;sMafG DBD of chimeras (Homo sapiens?;Homo sapiens?, UniProt Q16236;O15525 451-567;1-162, |); assay: EMSA; apparent; TEV and 3C cleaved; 150 mM NaCl, 50 mM HEPES pH 7.9, 10% glycerol, 1 mM TCEP, 1 mM DTT, 2 mM MgCl2; 3 nM DNA; TEV and 3C 50 ug/mL each, 4 h 25 °C; competition then O/N 4 °C; gels 4 °C in 1X TBE; conditions: protein: recombinant;recombinant; tags: 3C/TEV-cleavable linker with His tags to sMafG;fused C-terminal of the linker; copies: 1;1; label: 5' fluorescein on forward strand; blunt
# [2] = target: BACH1 DBD of BACH1-sMafGχ;sMafG DBD of chimeras (Homo sapiens?;Homo sapiens?, UniProt O14867;O15525 511-627;1-162, |); assay: as above; conditions: protein: recombinant;recombinant; tags: 3C/TEV-cleavable linker with His tags to sMafG;fused C-terminal of the linker; copies: 1;1; label: 5' fluorescein on forward strand; blunt
binder,measurement,setting,value
HMOX1 CsMBE 30-mer (dsDNA) DNA 1: CTCGGGACCGTGACTCAGCAGGAAAAACAC DNA 2: GTGTTTTTCCTGCTGAGTCACGGTCCCGAG,Kd,[1],58 ± 3 nM
same,Kd,[2],49 ± 1.9 nM

# — PMC12561426, “Dissecting the Interplay Between NRF2 and BACH1 at CsMBEs”
